Assay [1] addresses T1, purified recombinant IFNAR-1 extracellular fragment (human, UniProt P17181 28-436).
T1 construct: extracellular domain; also called soluble IFNAR-1; soluble IFNAR
T1 sequence (looked up): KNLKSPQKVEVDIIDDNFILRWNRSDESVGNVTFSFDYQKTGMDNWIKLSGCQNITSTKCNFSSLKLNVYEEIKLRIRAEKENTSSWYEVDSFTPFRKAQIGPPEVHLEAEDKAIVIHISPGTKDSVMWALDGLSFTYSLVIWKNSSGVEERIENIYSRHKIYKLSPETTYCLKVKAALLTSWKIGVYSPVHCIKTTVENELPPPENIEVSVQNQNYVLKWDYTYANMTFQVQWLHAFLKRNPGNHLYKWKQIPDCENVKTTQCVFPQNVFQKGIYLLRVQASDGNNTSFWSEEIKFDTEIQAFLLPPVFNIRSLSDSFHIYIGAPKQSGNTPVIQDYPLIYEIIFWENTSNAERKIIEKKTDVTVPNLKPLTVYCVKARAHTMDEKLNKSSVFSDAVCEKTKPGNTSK
Kind of assay: Biacore, maximal association on IFNAR-1 relative to M3K1. The source says:
(§1) Pools 4 and 11 were selected for further study and the individual antibodies in each pool were produced and expressed separately. The sequences of these individual antibodies were as shown in SEQ ID NO:12 of FIG. 1F and SEQ ID NO: 13 of FIG. 1G. The data is presented as maximal association relative to M3K1. […]

For assay [2], the target named is T1, purified recombinant IFNAR-1 …. Described as above.
From the text: as §1
The source holds these as a separate data set.

Assay [3] has the same target. Kind of assay: Biacore, antibody on immobilized soluble IFNAR-1, maximal response, mean of four. As for the experimental part: Additional combination variants heavy chain DI M3-B and light chain DI K1-C were also made. These combination variants were also tested for binding to IFNAR-1. […] Binding analysis was done by Biacore, with the antibody bound to immobilized soluble IFNAR-1. Maximal response was determined at two concentrations and values shown are mean of four determinations.
A general note: In SPR one partner is held on a chip, and binding of the other changes the refractive index at the surface.

Assay [4] shares this target. Kind of assay: Biacore, response on IFNAR-1 (flow cell 2) divided by response on anti-human IgG Fc (flow cell 4). The source says: A series of antibodies were constructed with reduced numbers of potential T-cell epitopes. These included heavy chain variants M3-A and M3-B in which residues were changed in CDR regions and DI M3 in which framework residues were altered. De-immunized light chains were also constructed termed K1-C, K1-D, K1-E and DI K1. The antibodies were expressed and purified before analysis by Biacore. A Biacore chip was used with IFNAR-1 coated on Flow cell 2 at 690 RU and anti-human IgG Fc on flow cell 4 at 5000 RU. Binding of the antibody to IFNAR-1 relative to anti-human IgG Fc was determined by the ratio of response at flow cell 2 divided by flow cell 4 (Fc2/Fc4).

For assay [5] the target is unchanged. The assay can be described thus: Biacore, antibody captured on anti-human IgG Fc, soluble IFNAR 25-400 nM, flow cell 2-1 low density capture.
For assay [6] the target is unchanged. The assay can be described thus: Biacore, antibody captured on anti-human IgG Fc, soluble IFNAR-1 25-400 nM, flow cell 2-1 low density capture. The source says: (§2) The binding affinity of M3K1 was compared to that of H3K1.
Assay [7] has the same target. The assay can be described thus: Biacore, antibody captured on anti-human IgG Fc, soluble IFNAR 25-400 nM, flow cell 4-3 higher density capture.
Assay [8] shares this target. The assay can be described thus: Biacore, antibody captured on anti-human IgG Fc, soluble IFNAR-1 25-400 nM, flow cell 4-3 higher density capture.
From the text: as §2

Assay [9] has the same target. Kind of assay: Biacore, antibody captured on anti-human IgG Fc, soluble IFNAR 25-400 nM, flow cell 2-1 low density capture; Flow cell 2-1, low density capture.
From the text: as §2

For assay [10], the target named is T2, IFNAR-1 on human cells (human, UniProt P17181 28-557).
T2 sequence (looked up): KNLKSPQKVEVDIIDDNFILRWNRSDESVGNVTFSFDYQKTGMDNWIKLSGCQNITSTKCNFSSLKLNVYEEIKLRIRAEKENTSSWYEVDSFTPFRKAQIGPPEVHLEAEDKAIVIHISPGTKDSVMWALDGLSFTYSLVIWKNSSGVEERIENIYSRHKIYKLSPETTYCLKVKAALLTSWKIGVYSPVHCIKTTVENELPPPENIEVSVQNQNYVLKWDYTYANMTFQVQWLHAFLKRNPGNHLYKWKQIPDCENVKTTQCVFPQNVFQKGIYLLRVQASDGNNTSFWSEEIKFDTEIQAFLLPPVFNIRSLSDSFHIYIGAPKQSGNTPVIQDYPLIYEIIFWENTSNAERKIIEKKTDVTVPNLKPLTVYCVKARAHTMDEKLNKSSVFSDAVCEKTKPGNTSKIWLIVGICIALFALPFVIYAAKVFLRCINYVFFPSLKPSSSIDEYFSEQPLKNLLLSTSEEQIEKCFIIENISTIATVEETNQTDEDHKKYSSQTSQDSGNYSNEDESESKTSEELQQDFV
Kind of assay: cell-based or functional assay.

For assay [11], the target named is T1, purified recombinant IFNAR-1 …. Kind of assay: Biacore, 200 nM antibody on immobilized soluble IFNAR-1.
The target is the same in assay [12]. The assay can be described thus: Receptor Binding (Biacore), purified recombinant receptor.
Assay [13] addresses T2, IFNAR-1 on human cells. Kind of assay: Scatchard analysis, 125I-labelled antibody on BALL-1 cells. As for the experimental part:
BALL-1 cells, which express IFNAR-1 and IFNAR-2, were used to assess the binding of anti-IFNAR-1 humanized antibodies to cells by Scatchard analysis. The cells were grown in RPMI containing 10% FCS and washed twice with Hanks Balanced Salt Solution (HBSS) at 4 degrees C. […] Millipore plates (MAFB NOB) were coated with 1% nonfat dry milk in water and stored a 4° C. overnight. The plates were washed with binding buffer and 25 ul of unlabeled antibody (1000-fold excess) in TBS binding buffer was added to control wells in a Millipore 96 well glass fiber filter plate (non-specific binding NSB). Twenty-five microliters of buffer alone was added to the maximum binding control well (total binding). Twenty-five microliters of ¹²⁵I-anti-IFNAR-1 antibody and 25 ul of BALL-I cell suspension (4×10⁷ cells/ml) in TBS binding buffer were added. The plates were incubated for 2 hours at 200 RPM on a shaker at 4° C. At the completion of the incubation the Millipore plates were washed twice with 0.2 ml of cold TBS binding buffer containing a final concentration of 0.5 M NaCl. The filters were removed and counted in a gamma counter. Evaluation of equilibrium binding was performed using single site binding parameters with the Prism software (San Diego, Calif.).
Therefore in either a protein-based or cell-based assay, the binding affinity of the antibodies are in the low nM range.

Assay [14] addresses T1, purified recombinant IFNAR-1 …. The assay can be described thus: Biacore, IFNAR-1 extracellular fragment coupled to CM5 chip, antibody 1.75-80 nM. As for the experimental part:
Antibodies from clones 64G12, H2K6, H2K1, H3K6, and H3K1 were assayed by Biacore analysis (Biacore AB, Uppsala, Sweden) to determine binding kinetics. Purified recombinant IFNAR-1 extracellular fragment was coupled to the CM5 sensor chip @ 600 RU. Binding was measured by adding antibody at concentrations from 1.75-80 nM at a flow rate of 20 ul/min. The binding curves were fit to a Langmuir binding model using BIAevaluation software (Biacore AB, Uppsala, Sweden).

Where two headings read alike, the source gives them in different places.

B1: M3K1 (antibody, V domains shown)
VH: EVQLLESGGGLVQPGGSLRLSCAFSGFTLSTSGMGIGWVRQAPGKGLEWVAHIWWDDDKYYNPSLKSRFTISRDTSKNTVYLQMNSLRAEDTAVYYCARNYYPYDAWFDYWGQGTLVTVS
VL: DIQMTQSPSSLSASVGDRVTITCSASSSINSNHLHWYQQKPGKAPKLLIYRTSILASGVPSRFSGSGSGTSFTLTISSLQPEDFATYYCQQGSNIPFTFGQGTKVEIKR
notes: also called heavy chain M3 with light chain K1
Usually Kd stands for a measure of binding affinity in units of concentration. By koff is commonly meant the rate constant with which the complex falls apart. Broadly, the kon is the rate constant with which the complex forms. Consider B1, for which the “% activity relative to M3K1” value in assay [1] and in [2] was 100% each time. In addition, the “% response relative to H3K1” value in assay [3] came to 97%. Besides, the “% activity relative to H3K1” value in assay [4] came out at 140%. Also, in [4], the Fc2/Fc4 amounted to 0.42. For the same molecule, the Kd in assay [5] came to 7.09 nM; in assay [6], 7.09 nM; in [7], 7.99 nM; in [8], 7.99 nM. Moreover, the koff in assay [5] amounted to 3.79e-05 s⁻¹; in assay [6] it was 3.79e-05 s⁻¹; in [7] it was 4.39e-05 s⁻¹; in assay [8], 4.39e-05 s⁻¹. Besides, the kon turned out to be 5340 M⁻¹ s⁻¹ in [6], 5490 M⁻¹ s⁻¹ in assay [7], 5490 M⁻¹ s⁻¹ in assay [8] and 5340 M⁻¹ s⁻¹ in assay [9].

B2: H3K1 (IgG4) (antibody, V domains shown)
VH: EVQLVESGGGLVQPGGSLRLSCAFSGFTLSTSGMGIGWVRQAPGKGLEWVAHIWWDDDKYYNPSLKSRFTISRDTSKNTVYLQMNSLRAEDTAVYYCARNYYPYDAWFDYWGQGTLVTVS
VL: DIQMTQSPSSLSASVGDRVTITCSASSSINSNHLHWYQQKPGKAPKLLIYRTSILASGVPSRFSGSGSGTSFTLTISSLQPEDFATYYCQQGSNIPFTFGQGTKVEIKR
notes: also called H3K1 standard; humanized anti-IFNAR-1 mAb H3K1
Consider B2, for which the “Cell Proliferation (Daudi) IC50, cells cultured with interferon α2b” value with IFNAR-1 on human cells [10] is 9.1 nM. In addition, the “ISRE-RG Reporter (U937) IC50, interferon α2b” value with IFNAR-1 on human cells [10] worked out at 21.5 nM. Also, in [11], the “Max Response relative to H3K1 (%)” value amounted to 100%. In addition, the “% activity relative to M3K1” value in assay [1] was 115%; in [2] it was 138%. For the same molecule, the Kd in [12] came to 3.4 nM; in the assay with IFNAR-1 on human cells [13], 4 nM; in [14] it was 3.4 nM; in assay [6] it was 6.26 nM; in assay [8], 6.43 nM. Further, the “% response relative to H3K1” value in assay [3] was 100%. Further, the “% activity relative to H3K1” value in assay [4] was found to be 100%. Besides, the Fc2/Fc4 in [4] turned out to be 0.3. In addition, the koff is 5.04e-05 s⁻¹ in assay [6] and 4.81e-05 s⁻¹ in [8]. The kon in assay [6] is 8060 M⁻¹ s⁻¹; in assay [8], 7480 M⁻¹ s⁻¹.

These data come from patent publication US20050208041A1 (Bristol-Myers Squibb, published 2005).
